Data published in PMC6667215, “Cell-sized confinement controls generation and stability of a protein wave for spatiotemporal regulation in cells” (eLife, 2019).

Molecular target: T1, sfGFP-MinD^D40AΔ10 (E. coli MG1655, UniProt P0AEZ3 1-260, D40A)
T1 construct: MinD of E. coli MG1655 with the D40A mutation and deletion of the C-terminal 10 amino acids, made from pET15-sfGFP-minD; 55 kDa after removal of the 2 kDa His-Tag (so in the source); also called MinD mutant treated by thrombin; His-sfGFP-MinD^D40AΔ10 (before cleavage); not shown: His tag, N-terminal, cleaved; sfGFP, N-terminal, kept
T1 sequence (looked up): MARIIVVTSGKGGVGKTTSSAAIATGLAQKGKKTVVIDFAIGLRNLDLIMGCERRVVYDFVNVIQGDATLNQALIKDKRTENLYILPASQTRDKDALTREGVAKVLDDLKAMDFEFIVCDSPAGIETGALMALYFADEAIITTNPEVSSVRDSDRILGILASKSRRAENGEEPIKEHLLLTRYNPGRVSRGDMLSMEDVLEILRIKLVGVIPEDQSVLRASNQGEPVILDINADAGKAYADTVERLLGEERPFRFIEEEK
Test: pull-down; His-tagged Min protein held on cOmplete His-Tag purification (Ni-NTA) resin; 9 µM MinE-mCherry-His, 3 µM His-sfGFP-MinD or 6 µM thrombin-treated MinD^D40AΔ10, with or without 3 µM BSA; RE buffer, 30 min, room temperature; washed with 20 mM imidazole, eluted with 250 mM imidazole; SDS-PAGE and CBB staining
Settings: both partners purified

B1: MinE-mCherry-His (natural protein, E. coli K12 MG1655, UniProt P0A734 1-88, looked up)
chain: MALLDFFLSRKKNTANIAKERLQIIVAERRRSDAEPHYLPQLRKDILEVICKYVQIDPEMVTVQLEQKDGDISILELNVTLPEAEELK
notes: MinE, gene amplified from the E. coli K12 MG1655 genome and cloned into pET29a with mCherry (pET29-minE-mCherry-His); The 6xHis-tag was attached at the C-terminal of mCherry by PCR; the mCherry gene came from the pET21b-RL027A plasmid (Addgene); source: E. coli BL21-CodonPlus(DE3) RIPL, purified (His-Tag purification resin, HiTrap Q HP); not shown: mCherry, C-terminal, kept; 6xHis, C-terminal, …
  binding result: binds
